We go through 1 substance from patent US20210230304A1.

What is called Kd is the concentration at which binding is half-saturated. High values mean a looser complex, low ones a tighter complex.

The target of this experiment is Chicken egg white-derived lysozyme (Sigma-Aldrich) (chicken) (UniProt P00698). The experiment in a line: SPR, Biacore T200; antigen immobilised, antibody as analyte.
Chain of Chicken egg white-derived lysozyme (Sigma-Aldrich) (chicken) (P00698 19-147): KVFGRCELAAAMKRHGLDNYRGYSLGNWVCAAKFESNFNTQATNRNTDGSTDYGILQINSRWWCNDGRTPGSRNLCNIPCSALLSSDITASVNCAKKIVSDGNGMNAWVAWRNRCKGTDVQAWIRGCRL

The substance “mouse anti-lysozyme antibody of clone Hy-HEL5, wild-type” returned a Kd of 0.177 nM.
